Target: T1, NF1 GAP-related domain (GRD) (UniProt P21359)
T1 sequence: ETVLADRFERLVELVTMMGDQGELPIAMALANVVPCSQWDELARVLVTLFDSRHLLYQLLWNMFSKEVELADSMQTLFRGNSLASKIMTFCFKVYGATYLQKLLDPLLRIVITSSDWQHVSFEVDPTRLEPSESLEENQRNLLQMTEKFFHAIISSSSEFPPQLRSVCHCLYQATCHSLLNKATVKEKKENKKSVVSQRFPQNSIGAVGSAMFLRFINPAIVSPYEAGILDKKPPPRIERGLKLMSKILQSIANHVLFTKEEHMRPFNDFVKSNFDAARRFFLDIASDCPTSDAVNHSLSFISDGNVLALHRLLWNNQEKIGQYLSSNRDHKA

## purified KRAS^WT loaded with GTP
  GTP hydrolysis by KRAS^WT: conventional RAS-GAPs (such as NF1), which potently enhance hydrolysis by KRAS^WT (FIG. 3B: NF1>>RGS3)

Source: patent US20240219403
